Measured values as given in the RNAGym collection of RNA variant scans (doi:10.1073/pnas.2313332121).
This sample holds only a part of the variants without activity.

B1: TPR 5TU (parent)
chain: GGAUCUUCUCGAUCUAACAAAAAAGACAAAUCUGCCACAAAGCUUGAGAGCAUCUUCGGAUGCAGAGGCGGCAGCCUUCGGUGGCGCGAUAGCGCCAACGUUCUCAACUAUGACACGCAAAACGCGUGCUCCGUUGAAUGGAGUUUAUCAUG

Variants of: B1
Test: polymerase ribozyme fitness, log enrichment relative to wild type (log ratio); higher = more active; in vitro selection for triplet polymerase activity
Procedure, shortened: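 Mutant libraries for each subunit of a heterodimeric triplet polymerase ribozyme were made by PCR and then transcribed. Each library underwent one round of in vitro selection in triplicate: annealing with a biotinylated primer, the partner subunit and triplets, frozen incubation at −7 °C, gel excision of extended constructs, streptavidin-bead capture and RT-PCR. Input and output libraries were Illumina-sequenced, and only genotypes with ≥10 input reads and ≥1 read per output were kept. Fitness is the logarithm, base 2, of genotype enrichment over wild-type enrichment, computed from inverse-variance-weighted replicate averages.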

Row | Variant | polymerase ribozyme fitness (log ratio)
1 | A3U A12G U13G A19C G143U | -2.98
2 | U4C A49U C93A | -3.07
3 | A3U U15A A21U U31A C85G | -0.347
4 | U4G C5U A24U A26U G65U G88U G94U A98G G124U G143U | ≤ -4.2
5 | A3U U56A G83A C85U A91G C95U C99A U144G | ≤ -4.2
6 | A3C A19G A21U U45A U82C G92C U139G U144A | ≤ -4.2
7 | A3U U7G A39C U56A G83C C132U U144C U145C C149A | ≤ -4.2
8 | U4A U7A G42C G48C A66C G67A C72U U101G | ≤ -4.2
9 | U4C C8U A22U G50U C54U A107U C116G | ≤ -4.2
10 | U4G A23C A30U A52C U56A | ≤ -4.2
11 | A3G U56A C96A U134A | -3.26
12 | A3G A39C | -3.26
13 | U4A C27U C38U C51U A106G U109A | -3.72
14 | U4C C32A A37G G83U A122U U151A | ≤ -4.2
15 | A3U G94A G117C A137G | -3
16 | A3G C5G U7A G50U G86A C93U C96U | -0.354
17 | A3U A20C C54U G86C C125U | -4.19
18 | A3G U6C A64U G70C G86A U90G C93U G133C C149U | ≤ -4.2
19 | A3C A37G A91C A138C G140U | ≤ -4.2
20 | U4A U6A A40U G46C C96A C118A | -3.94
21 | U4G C85U U134G U145G | -2.85
22 | U4G U6A U13A C14A U33A A39G | ≤ -4.2
23 | A3U A30G G86C C96U | -4
24 | U4A C8A C43A A64U C93A U146C | ≤ -4.2

Row | Variant | polymerase ribozyme fitness (log ratio)
25 | A3G C35U C96A A106C A138C A142G | ≤ -4.2
26 | U4G G46A | -0.673
27 | U4G C51G A73U C87U C96A G117A | ≤ -4.2
28 | A3U A41G C85U G126U U144A | -1.79
29 | U4A A24U C57G C85U | -0.18
30 | A3G A17U G34A C118G U146A C149A | ≤ -4.2
31 | A3G A19U G92U A113C | -3.43
32 | U4C U53A C76G U90C U145C | ≤ -4.2
33 | A3U A20C U31G C36A | ≤ -4.2
34 | A3G A20G | -0.654
35 | A3U A37U G42C C57U C95A A120G | ≤ -4.2
36 | A3U C5A A19U G50A C57U | -3.13
37 | U4A U33C G59A U90G C95A U111G C125A | ≤ -4.2
38 | A3C A29C A37U C57U C87U A142G U148C | ≤ -4.2
39 | A3U A16C U45A C75A U82G G84A C118U | ≤ -4.2
40 | A3G A26C A60G | -2.26
41 | A3U C27U A49C G88C C96A C125G A142C | ≤ -4.2
42 | U4G U61A G88A | ≤ -4.2
43 | A3U U56A G88C U145G | -3.98
44 | U4C A20U A64C C85G U101C C118U | ≤ -4.2
45 | A3U A30G A52U C79G G88U C95U A115G A120C G133U | -4.13
46 | A3G U55A C93A | -3.2
47 | U4A U56A | -0.0652
48 | U4G G34A C96G A97U C123A C132A | ≤ -4.2

Row | Variant | polymerase ribozyme fitness (log ratio)
49 | A3U C54U U56A C95U C123U A150C G152U | -3.58
50 | U4C C8A G59A | -4.18
51 | A3U C18G A22G G94C C131U | ≤ -4.2
52 | A3C U13C C51U C57U C87U C96G U139C | ≤ -4.2
53 | A3G A23C A26G U45A A52G G59A G80C A106C | ≤ -4.2
54 | U4C A52G G59U U145G | -1.5
55 | U4A C18G A19U U31A U135C | -4.1
56 | U4G G25U G48U U55G G84C A115C U134C | ≤ -4.2
57 | U4C G58C | 0.358
58 | A3U C87A | -3.25
59 | U4G A37C G50U G59U G86U | -3.71
60 | A3G C51G A52C G84U U101G A107G | ≤ -4.2
61 | A3U U33A C43U G84A C85A G140C U146C | ≤ -4.2
62 | A3U C76A | -1.8
63 | A3C G11C C76U C93A | -3.68
64 | U4G C57G | -0.334
65 | C5A A17C G83A G143U | -2.68
66 | U4A A21G G68A A73G G86U A142G | ≤ -4.2
67 | A3G C72U C85U U146C | -0.724
68 | A3C U45A G59U G92U | ≤ -4.2
69 | U4A C8U A29C A41C G58A C75A C79U G83A | ≤ -4.2
70 | A3C A20G C85A | -2.54
71 | A3U A24U A52U A60G G92U | -2.23
72 | A3C C8U C27U G68A C87U A91C C93G | ≤ -4.2

Row | Variant | polymerase ribozyme fitness (log ratio)
73 | A3U A47C | -0.9
74 | A3C C85A | -2.55
75 | A3G C18G G83C U144C | -2.47
76 | U4A A12C G50A G84U G141U | -3.8
77 | A3U C5G A21U A30G C93A U148A | ≤ -4.2
78 | U4G A47C C51U G80A G84A G94U A97U | ≤ -4.2
79 | U4C A24U U61A | -1.7
80 | U4G G50A C96G U102G C123A | ≤ -4.2
81 | A3U U90C A97G A150G | -3.73
82 | A3U A30C C36A A60U G84A C85A G140C U146C | ≤ -4.2
83 | A3C U31G U53A U55A C96A A115G G126A A142C | ≤ -4.2
84 | A3G C51G U56A G92U C118U U145C | ≤ -4.2
85 | A3G G11C G34C A41G C87A | -4.04
86 | A3C A19U C57G G94A G141A | -2.02
87 | U4G A21C U56G C85U G124U | -1.58
88 | A3C G83A G136C | -3.35
89 | U4A A16U A29U U55G C72G U127A | ≤ -4.2
90 | A3G U6A U33G G50A C79U C129A | ≤ -4.2
91 | A3G C57A C87A | ≤ -4.2
92 | U4G C99U | -0.868
93 | A3U A39G G58C C96U | -3.39
94 | U4C G58A C103A G124A | -3.54
95 | A3C C10A U82C | -2.75
96 | A3G G83U | -0.444

Row | Variant | polymerase ribozyme fitness (log ratio)
97 | A3C U13C A28G C79G G80C G94A G141C | -4.17
98 | A3G A21C A37C C63U G74C C87G G128C G141A | ≤ -4.2
99 | A3U C10U G25C A52G G88C A97U G100C U144G | ≤ -4.2
100 | A3U A17C C35U G59A C85A | -3.22
101 | U4A C10U A23C C57U G81A G92C A115C C118A | ≤ -4.2
102 | U4G A30G A91G G94C G128U C132A | ≤ -4.2
103 | U4A U139C | -4.08
104 | U4A A17U A66G C69A G84U A138U | ≤ -4.2
105 | U4A G94C | -0.637
106 | U4C G50C G62A G84A G92C | ≤ -4.2
107 | U4G A12C U15A G80C U90G G126C G143C | ≤ -4.2
108 | A3G C54A C95U | -2.06
109 | A3U U4C G88U G92U A97G | ≤ -4.2
110 | A3U A52C C75U G92U C103G U134G | ≤ -4.2
111 | A3C U31G C57G | -1.39
112 | U4C A19C C38G C93U C114G | ≤ -4.2
113 | A3G A16C A22G A73G G84U C123U G141U | ≤ -4.2
114 | A3C C5A G11A U45A U55A G80A C96A | ≤ -4.2
115 | A3U C27G C95U A150G | ≤ -4.2
116 | A3U C18G A21U C57U C85U G94A A121U | -1.04
117 | A3U G58A U130A | -3.64
118 | A3U U15A U82C G86A A91G | -3.4
119 | A3U A28U C57U C75G | ≤ -4.2
120 | A3C A37U A40C U44A C132A | ≤ -4.2

Row | Variant | polymerase ribozyme fitness (log ratio)
121 | A3C G34C C43U A91G | ≤ -4.2
122 | A3G C57A U90A A91C C93U G94C C132U G140U A142U | ≤ -4.2
123 | A3U C57A G71A A91G | ≤ -4.2
124 | A3U G59A A120U | -0.556
125 | A3C G11U C36G A39U A91U C114U U127G U134G G140C | ≤ -4.2
126 | A3U A37G G59U G86A C99A U130C G141U | ≤ -4.2
127 | A3C A22U G86A G92U | -2.91
128 | A3U A16G C36A G92C G124C C131A G136U | ≤ -4.2
129 | U4C C51A U82A C96A | ≤ -4.2
130 | A3U A41C C95U C99G C118A G136A U144G | -3.81
131 | U4A A41C U61A C63G A64C C72A C96G | ≤ -4.2
132 | U4A C76A C93A A115G G124C C149U | ≤ -4.2
133 | U4A G84A U101G | -0.65
134 | A3C | -0.142
135 | A3G | -0.234
136 | A3U | -0.0169
137 | A3G G94A C114U | -2.39
138 | U4A C57G G83A | -1.23
139 | A3U C108G A121U | ≤ -4.2
140 | U4C U15C C87A A121C | ≤ -4.2
141 | A3G G50A | -1.39
142 | U4A U6G G67C U82A U130G G143C | ≤ -4.2
143 | U4C A115G | -1.57
144 | A3C A16U A26U U55A | ≤ -4.2

Row | Variant | polymerase ribozyme fitness (log ratio)
145 | A3G G42C C69G C85G C118U C129U | ≤ -4.2
146 | U4G A26G U33A C54G G86A G88U U90G | ≤ -4.2
147 | A3C U15A C85U | 0.611
148 | A3U C27U G81A C96A | -3.11
149 | U4G C8G A19G A49U U53C A73G G83A A98G A113C A115U | ≤ -4.2
150 | A3G C96A A98U U102C | -2.26
151 | U4G G140C | ≤ -4.2
152 | U4C A147C | -0.0283
153 | U4C U56G G83A C87A | ≤ -4.2
154 | U4G U6G A20C A24U A30C C95U A119C U148A | ≤ -4.2
155 | A3G A37C G80U | -3.88
156 | U4A A17G A47G G68U C69G G88U G124A U127A G128C G140U U145G | ≤ -4.2
157 | A3U U13G | 0.0481
158 | U4G C87A A98G U130G | ≤ -4.2
159 | U4G C14G A21U A30U C93G C131U G141A | ≤ -4.2
160 | U4A G25U C54U G92U G124A | -2.53
161 | A3G A12G A52G G84A C116G | -1.71
162 | U4G G141U | 0.552
163 | A3G G42A A49C C63U C69G C85G A115C | ≤ -4.2
164 | U4G C54G G80C G92U A115C | ≤ -4.2
165 | U4A A16U A17U A30C A39G A49U C87G A89C G133C U139C | ≤ -4.2
166 | U4G C10A U56A G71C G84C | ≤ -4.2
167 | U4G A73G G92U A107U A122U | -3.96
